Test results as given in the Human Domainome abundance scans (Beltran et al. 2025).
± gives the uncertainty stated by the source.

B1: Zinc finger protein ZIC 2, residues 250 to 295; numbered along this chain, O95409 (parent)
chain: QCIKQELICKWIDPEQLSNPKKSCNKTFSTMHELVTHVSVEHVGGP

Variants of: B1
Experiment: abundance fitness (aPCA) (normalised: wild type 0, dead -1); higher = more abundant; growth selection in yeast, the domain comes from the species named
Conditions: Homo sapiens

| Variant | abundance fitness |
| --- | --- |
| QCIKQELICKWIDPEQLSNPKKSCNKTFSTMHILVTHVSVEHVGGP [E33I] | -0.932 ± 0.14 |
| QCIKQELICKWIDPEQLSNPKKSCNKTFSTMHPLVTHVSVEHVGGP [E33P] | -0.826 ± 0.12 |
| QCIKQELICKWIDPEQLSNPKKSCNKTFSTMHCLVTHVSVEHVGGP [E33C] | -0.777 ± 0.11 |
| QCIKQELICKWIDPEQLSNPKKSCNKTFSTMHSLVTHVSVEHVGGP [E33S] | -0.452 ± 0.092 |
| QCIKQELICKWIDPEQLSNPKKSCNKTFSTMHGLVTHVSVEHVGGP [E33G] | -0.166 ± 0.084 |
| QCIKQELICKWIDPEQLSNPKKSCNKTFSTMHALVTHVSVEHVGGP [E33A] | -0.342 ± 0.088 |
| QCIKQELICKWIDPEQLSNPKKSCNKTFSTMHMLVTHVSVEHVGGP [E33M] | -0.751 ± 0.11 |
| QCIKQELICKWIDPEQLSNPKKSCNKTFSTMHWLVTHVSVEHVGGP [E33W] | -0.979 ± 0.1 |
| QCIKQELICKWIDPEQLSNPKKSCNKTFSTMHRLVTHVSVEHVGGP [E33R] | -0.69 ± 0.09 |
| QCIKQELICKWIDPEQLSNPKKSCNKTFSTMHQLVTHVSVEHVGGP [E33Q] | -0.046 ± 0.11 |
| QCIKQELICKWIDPEQLSNPKKSCNKTFSTMHYLVTHVSVEHVGGP [E33Y] | -1.01 ± 0.13 |
| QCIKQELICKWIDPEQLSNPKKSCNKTFSTMHHLVTHVSVEHVGGP [E33H] | -0.434 ± 0.14 |
| QCIKQELICKWIDPEQLSNPKKSCNKTFSTMHLLVTHVSVEHVGGP [E33L] | -0.735 ± 0.095 |
| QCIKQELICKWIDPEQLSNPKKSCNKTFSTMHNLVTHVSVEHVGGP [E33N] | -0.726 ± 0.12 |
| QCIKQELICKWIDPEQLSNPKKSCNKTFSTMHVLVTHVSVEHVGGP [E33V] | -0.838 ± 0.092 |
| QCIKQELICKWIDPEQLSNPKKSCNKTFSTMHFLVTHVSVEHVGGP [E33F] | -1.03 ± 0.14 |
| QCIKQELICKWIDPEQLSNPKKSCNKTFSTMHKLVTHVSVEHVGGP [E33K] | -0.615 ± 0.12 |
| QCIKQELICKWIDPEQLSNPKKSCNKTFSTMHDLVTHVSVEHVGGP [E33D] | 0.086 ± 0.1 |
| QCIKQELICKWIDPEQLSNPKKSCNKTFSTMHECVTHVSVEHVGGP [L34C] | -0.797 ± 0.12 |

| Variant | abundance fitness |
| --- | --- |
| QCIKQELICKWIDPEQLSNPKKSCNKTFSTMHEAVTHVSVEHVGGP [L34A] | -0.641 ± 0.091 |
| QCIKQELICKWIDPEQLSNPKKSCNKTFSTMHEDVTHVSVEHVGGP [L34D] | -0.828 ± 0.13 |
| QCIKQELICKWIDPEQLSNPKKSCNKTFSTMHEEVTHVSVEHVGGP [L34E] | -0.717 ± 0.1 |
| QCIKQELICKWIDPEQLSNPKKSCNKTFPTMHELVTHVSVEHVGGP [S29P] | 0.209 ± 0.1 |
| QCIKQELICKWIDPEQLSNPKKSCNKTFLTMHELVTHVSVEHVGGP [S29L] | 0.07 ± 0.092 |
| QCIKQELICKWIDPEQLSNPKKSCNKTFCTMHELVTHVSVEHVGGP [S29C] | -0.337 ± 0.094 |
| QCIKQELICKWIDPEQLSNPKKSCNKTFFTMHELVTHVSVEHVGGP [S29F] | -0.215 ± 0.1 |
| QCIKQELICKWIDPEQLSNPKKSCNKTFRTMHELVTHVSVEHVGGP [S29R] | 0.236 ± 0.084 |
| QCIKQELICKWIDPEQLSNPKKSCNKTFHTMHELVTHVSVEHVGGP [S29H] | 0.077 ± 0.12 |
| QCIKQELICKWIDPEQLSNPKKSCNKTFATMHELVTHVSVEHVGGP [S29A] | -0.086 ± 0.093 |
| QCIKQELICKWIDPEQLSNPKKSCNKTFKTMHELVTHVSVEHVGGP [S29K] | 0.03 ± 0.11 |
| QCIKQELICKWIDPEQLSNPKKSCNKTFMTMHELVTHVSVEHVGGP [S29M] | -0.077 ± 0.11 |
| QCIKQELICKWIDPEQLSNPKKSCNKTFITMHELVTHVSVEHVGGP [S29I] | -0.356 ± 0.14 |
| QCIKQELICKWIDPEQLSNPKKSCNKTFVTMHELVTHVSVEHVGGP [S29V] | -0.167 ± 0.091 |
| QCIKQELICKWIDPEQLSNPKKSCNKTFGTMHELVTHVSVEHVGGP [S29G] | 0.03 ± 0.084 |
| QCIKQELICKWIDPEQLSNPKKSCNKTFDTMHELVTHVSVEHVGGP [S29D] | 0.352 ± 0.1 |
| QCIKQELICKWIDPEQLSNPKKSCNKTFNTMHELVTHVSVEHVGGP [S29N] | -0.213 ± 0.13 |
| QCIKQELICKWIDPEQLSNPKKSCNKTFQTMHELVTHVSVEHVGGP [S29Q] | 0.114 ± 0.11 |
| QCIKQELICKWIDPEQLSNPKKSCNKTFETMHELVTHVSVEHVGGP [S29E] | 0.425 ± 0.096 |

| Variant | abundance fitness |
| --- | --- |
| QCIKQELICKWIDPEQLSNPKKSCNKTFTTMHELVTHVSVEHVGGP [S29T] | 0.551 ± 0.11 |
| QCIKQELICKWIDPEQLSNPKKSCNKTFWTMHELVTHVSVEHVGGP [S29W] | -0.386 ± 0.095 |
| QCIKQELICKWIDPEQLSNPKKSCNKTFSVMHELVTHVSVEHVGGP [T30V] | -0.429 ± 0.099 |
| QCIKQELICKWIDPEQLSNPKKSCNKTFSIMHELVTHVSVEHVGGP [T30I] | -0.315 ± 0.16 |
| QCIKQELICKWIDPEQLSNPKKSCNKTFSDMHELVTHVSVEHVGGP [T30D] | -0.072 ± 0.12 |
| QCIKQELICKWIDPEQLSNPKKSCNKTFSKMHELVTHVSVEHVGGP [T30K] | -0.389 ± 0.13 |
| QCIKQELICKWIDPEQLSNPKKSCNKTFSRMHELVTHVSVEHVGGP [T30R] | -0.418 ± 0.094 |
| QCIKQELICKWIDPEQLSNPKKSCNKTFSLMHELVTHVSVEHVGGP [T30L] | -0.802 ± 0.11 |
| QCIKQELICKWIDPEQLSNPKKSCNKTFSGMHELVTHVSVEHVGGP [T30G] | -0.178 ± 0.092 |
| QCIKQELICKWIDPEQLSNPKKSCNKTFSAMHELVTHVSVEHVGGP [T30A] | 0.122 ± 0.096 |
| QCIKQELICKWIDPEQLSNPKKSCNKTFSNMHELVTHVSVEHVGGP [T30N] | 0.317 ± 0.12 |
| QCIKQELICKWIDPEQLSNPKKSCNKTFSSMHELVTHVSVEHVGGP [T30S] | -0.273 ± 0.096 |
| QCIKQELICKWIDPEQLSNPKKSCNKTFSPMHELVTHVSVEHVGGP [T30P] | -0.923 ± 0.13 |
| QCIKQELICKWIDPEQLSNPKKSCNKTFSEMHELVTHVSVEHVGGP [T30E] | -0.316 ± 0.12 |
| QCIKQELICKWIDPEQLSNPKKSCNKTFSQMHELVTHVSVEHVGGP [T30Q] | -0.159 ± 0.11 |
| QCIKQELICKWIDPEQLSNPKKSCNKTFSHMHELVTHVSVEHVGGP [T30H] | -0.596 ± 0.14 |
| QCIKQELICKWIDPEQLSNPKKSCNKTFSYMHELVTHVSVEHVGGP [T30Y] | -0.96 ± 0.18 |
| QCIKQELICKWIDPEQLSNPKKSCNKTFSMMHELVTHVSVEHVGGP [T30M] | -0.765 ± 0.15 |
